Reference: doi:10.1101/2025.06.25.661518, “Structural insights into DNA annealing and recombination by herpesviral DNA-binding proteins ICP8 and BALF2” (bioRxiv, 2025)

B1: BALF2, DNA-binding protein of Epstein-Barr Virus (natural protein)
chain: MQGAQTSEDNLGSQSQPGPCGYIYFYPLATYPLREVATLGTGYAGHRCLTVPLLCGITVEPGFSINVKALHRRPDPNCGLLRATSYHRDIYVFHNAHMVPPIFEGPGLEALCGETREVFGYDAYSALPRESSKPGDFFPEGLDPSAYLGAVAITEAFKERLYSGNLVAIPSLKQEVAVGQSASVRVPLYDKEVFPEGVPQLRQFYNSDLSRCMHEALYTGLAQALRVRRVGKLVELLEKQSLQDQAKVAKVAPLKEFPASTISHPDSGALMIVDSAACELAVSYAPAMLEASHETPASLNYDSWPLFADCEGPEARVAALHRYNASLAPHVSTQIFATNSVLYVSGVSKSTGQGKESLFNSFYMTHGLGTLQEGTWDPCRRPCFSGWGGPDVTGTNGPGNYAVEHLVYAASFSPNLLARYAYYLQFCQGQKSSLTPVPETGSYVAGAAASPMCSLCEGRAPAVCLNTLFFRLRDRFPPVMSTQRRDPYVISGASGSYNETDFLGNFLNFIDKEDDGQRPDDEPRYTYWQLNQNLLERLSRLGIDAEGKLEKEPHGPRDFVKMFKDVDAAVDAEVVQFMNSMAKNNITYKDLVKSCYHVMQYSCNPFAQPACPIFTQLFYRSLLTILQDISLPICMCYENDNPGLGQSPPEWLKGHYQTLCTNFRSLAIDKGVLTAKEAKVVHGEPTCDLPDLDAALQGRVYGRRLPVRMSKVLMLCPRNIKIKNRVVFTGENAALQNSFIKSTTRRENYIINGPYMKFLNTYHKTLFPDTKLSSLYLWHNFSRRRSVPVPSGASAEEYSDLALFVDGGSRAHEESNVIDVVPGNLVTYAKQRLNNAILKACGQTQFYISLIQGLVPRTQSVPARDYPHVLGTRAVESAAAYAEATSSLTATTVVCAATDCLSQVCKARPVVTLPVTINKYTGVNGNNQIFQAGNLGYFMGRGVDRNLLQAPGAGLRKQAGGSSMRKKFVFATPTLGLTVKRRTQAATTYEIENIRAGLEAIISQKQEEDCVFDVVCNLVDAMGEACASLTRDDAEYLLGRFSVLADSVLETLATIASSGIEWTAEAARDFLEGVWGGPGAAQDNFISVAEPVSTASQASAGLLLGGGGQGSGGRRKRRLATVLPGLEV
notes: also called EBV BALF2; source: insect cells, purified
B2: ICP8, full-length (Herpes Simplex Virus 1 DNA-binding protein) (natural protein)
chain: METKPKTATTIKVPPGPLGYVYARACPSEGIELLALLSARSGDSDVAVAPLVVGLTVESGFEANVAVVVGSRTTGLGGTAVSLKLTPSHYSSSVYVFHGGRHLDPSTQAPNLTRLCERARRHFGFSDYTPRPGDLKHETTGEALCERLGLDPDRALLYLVVTEGFKEAVCINNTFLHLGGSDKVTIGGAEVHRIPVYPLQLFMPDFSRVIAEPFNANHRSIGEKFTYPLPFFNRPLNRLLFEAVVGPAAVALRCRNVDAVARAAAHLAFDENHEGAALPADITFTAFEASQGKTPRGGRDGGGKGAAGGFEQRLASVMAGDAALALESIVSMAVFDEPPTDISAWPLFEGQDTAAARANAVGAYLARAAGLVGAMVFSTNSALHLTEVDDAGPADPKDHSKPSFYRFFLVPGTHVAANPQVDREGHVVPGFEGRPTAPLVGGTQEFAGEHLAMLCGFSPALLAKMLFYLERCDGAVIVGRQEMDVFRYVADSNQTDVPCNLCTFDTRHACVHTTLMRLRARHPKFASAARGAIGVFGTMNSMYSDCDVLGNYAAFSALKRADGSETARTIMQETYRAATERVMAELETLQYVDQAVPTAMGRLETIITNREALHTVVNNVRQVVDREVEQLMRNLVEGRNFKFRDGLGEANHAMSLTLDPYACGPCPLLQLLGRRSNLAVYQDLALSQCHGVFAGQSVEGRNFRNQFQPVLRRRVMDMFNNGFLSAKTLTVALSEGAAICAPSLTAGQTAPAESSFEGDVARVTLGFPKELRVKSRVLFAGASANASEAAKARVASLQSAYQKPDKRVDILLGPLGFLLKQFHAAIFPNGKPPGSNQPNPQWFWTALQRNQLPARLLSREDIETIAFIKKFSLDYGAINFINLAPNNVSELAMYYMANQILRYCDHSTYFINTLTAIIAGSRRPPSVQAAAAWSAQGGAGLEAGARALMDAVDAHPGAWTSMFASCNLLRPVMAARPMVVLGLSISKYYGMAGNDRVFQAGNWASLMGGKNACPLLIFDRTRKFVLACPRAGFVCAASSLGGGAHESSLCEQLRGIISEGGAAVASSVFVATVKSLGPRTQQLQIEDWLALLEDEYLSEEMMELTARALERGNGEWSTDAALEVAHEAEALVSQLGNAGEVFNFGDFGCEDDNATPFGGPGAPGPAFAGRKRAFHGDDPFGEGPPDKKGDLTLDML
notes: also called full-length ICP8 form; source: insect cells, purified

Columns and labels:
[1] = molecular target: the molecule itself; assay: filament reconstitution seen by electron microscopy; protein incubated without DNA under the same conditions as the filament reconstitution; kind of microscopy not told
[2] = molecular target: the molecule itself; assay: cryo-EM structure; ICP8 double filament reconstituted with linear dsDNA carrying long ssDNA tails (T4 polymerase-treated); single-particle analysis of filament segments, 3.2 Å; DNA could not be built into the map

Protein | binding result [1] | binding result [2]
B1 | binds | 
B2 |  | binds
